Results on six variants are retold here after IntAct's records for PubMed 10531343.

To fix the notation:
B1: Synaptotagmin-9 (Mus musculus), Q9R0N9 (parent)
chain: MPGARDALCHQALQLLAELCARGALEHDSCQDFIYHLRDRARPRLRDPDISVSLLTLVVTACGLALFGVSLFVSWKLCWVPWRERGLFSGSKDNNQEPLNYTDTETNEQENSEDFLDPPTPCPDSSMKISHTSPDIPLSTQPGGQENCAHAVRVQRQVTEPTPSARHNSIRRQLNLSNPDFNIQQLQRQEQLTGIGRIKPELYKQRSLDNDDGRRSNSKACGKLNFILKYDCDLEQLIVKIHKAVNLPAKDFSGTSDPYVKIYLLPDRKTKHQTKVHRKTLNPVFDEVFLFPVHYNDLEARKLHFSVYDFDRFSRHDLIGQVVVDHFFDLADFPRECILWKDIEYVTNDNVDLGELMFSLCYLPTAGRLTITIIKARNLKAMDITGASDPYVKVSLMCDGRRLKKRKTSTKRNTLNPVYNEAIVFDVPPESIDQIHLSIAVMDYDRVGHNEVIGVCQVGNEAERLGRDHWSEMLSYPRKPIAHWHSLMEKR
partner: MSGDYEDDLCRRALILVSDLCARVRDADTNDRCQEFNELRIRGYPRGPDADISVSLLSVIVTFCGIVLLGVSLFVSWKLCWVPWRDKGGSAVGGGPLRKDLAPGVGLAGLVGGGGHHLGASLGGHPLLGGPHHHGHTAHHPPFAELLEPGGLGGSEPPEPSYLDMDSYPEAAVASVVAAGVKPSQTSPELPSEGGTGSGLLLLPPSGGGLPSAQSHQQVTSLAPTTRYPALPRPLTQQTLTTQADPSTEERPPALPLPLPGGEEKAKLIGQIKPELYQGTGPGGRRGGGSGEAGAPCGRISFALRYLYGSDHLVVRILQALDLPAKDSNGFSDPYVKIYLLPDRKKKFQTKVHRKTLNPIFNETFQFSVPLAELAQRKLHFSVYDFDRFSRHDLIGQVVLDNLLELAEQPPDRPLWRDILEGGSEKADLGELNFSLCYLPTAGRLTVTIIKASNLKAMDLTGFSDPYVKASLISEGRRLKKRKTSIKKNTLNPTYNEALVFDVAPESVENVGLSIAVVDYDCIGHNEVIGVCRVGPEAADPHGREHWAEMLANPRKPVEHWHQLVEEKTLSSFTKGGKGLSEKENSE
B2: Synaptotagmin-6 (Mus musculus), Q9R0N8 (parent)
chain: MSGVWGAGGPRCQAALAVLASLCRARPPPLGLDVETCRSFELQSPEQSPSAADSGTSVSLLAVVVIVCGVALVAVFLFLFWKLCWMPWRKKEASSPSSANPASETLQSPSSRGNMADKLKDPSALGFLEAAVKISHTSPDIPAEVQMSVKEHIMRHTKLQRQTTEPASSTRHTSFKRHLPRQMHVSSVDYGNELPPAAAEQPTSIGRIKPELYKQKSVDGDDAKSEAAKSCGKINFSLRYDYESETLIVRILKAFDLPAKDFCGSSDPYVKIYLLPDRKCKLQTRVHRKTLNPTFDENFHFPVPYEELADRKLHLSVFDFDRFSRHDMIGEVILDNLFEASDLSRETSIWKDIQYATSESVDLGEIMFSLCYLPTAGRLTLTVIKCRNLKAMDITGYSDPYVKVSLLCDGRRLKKKKTTIKKNTLNPIYNEAIIFDIPPENMDQVSLLISVMDYDRVGHNEIIGVCRVGINAEGLGRDHWNEMLAYPRKPIAHWHSLVEVKKSFKEGTPRL
partner: B1 chain
B3: Synaptotagmin-3 (Mus musculus), O35681 (parent)
chain: B1 partner
partner: B2 chain
B4: Synaptotagmin-6 (Mus musculus), Q9R0N8 (parent)
chain: B2 chain
partner: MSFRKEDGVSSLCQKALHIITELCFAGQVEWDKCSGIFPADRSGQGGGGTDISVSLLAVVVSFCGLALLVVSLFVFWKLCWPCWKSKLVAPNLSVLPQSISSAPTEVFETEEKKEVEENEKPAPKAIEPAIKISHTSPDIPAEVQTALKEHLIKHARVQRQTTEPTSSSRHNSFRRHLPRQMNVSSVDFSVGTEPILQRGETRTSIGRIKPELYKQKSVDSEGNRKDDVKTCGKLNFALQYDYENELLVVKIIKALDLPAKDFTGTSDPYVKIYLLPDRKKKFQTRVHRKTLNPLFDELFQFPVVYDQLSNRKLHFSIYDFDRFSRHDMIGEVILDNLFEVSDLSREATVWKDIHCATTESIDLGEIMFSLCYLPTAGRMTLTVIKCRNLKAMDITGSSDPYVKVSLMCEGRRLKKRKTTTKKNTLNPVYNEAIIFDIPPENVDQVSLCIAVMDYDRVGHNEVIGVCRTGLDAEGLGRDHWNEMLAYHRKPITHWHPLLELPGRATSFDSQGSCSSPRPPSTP
B5: Synaptotagmin-10 (Mus musculus), Q9R0N4 (parent)
chain: B4 partner
partner: B1 partner
B6: Synaptotagmin-9 (Mus musculus), Q9R0N9 (parent)
chain: B1 chain
partner: B2 chain

Variants of B1 are the subject of the first experiment. To be noted: with syt3_mouse Syt3, O35681.
For the variant MPGARDALAHQALQLLAELCARGALEHDSCQDFIYHLRDRARPRLRDPDISVSLLTLVVTACGLALFGVSLFVSWKLCWVPWRERGLFSGSKDNNQEPLNYTDTETNEQENSEDFLDPPTPCPDSSMKISHTSPDIPLSTQPGGQENCAHAVRVQRQVTEPTPSARHNSIRRQLNLSNPDFNIQQLQRQEQLTGIGRIKPELYKQRSLDNDDGRRSNSKACGKLNFILKYDCDLEQLIVKIHKAVNLPAKDFSGTSDPYVKIYLLPDRKTKHQTKVHRKTLNPVFDEVFLFPVHYNDLEARKLHFSVYDFDRFSRHDLIGQVVVDHFFDLADFPRECILWKDIEYVTNDNVDLGELMFSLCYLPTAGRLTITIIKARNLKAMDITGASDPYVKVSLMCDGRRLKKRKTSTKRNTLNPVYNEAIVFDVPPESIDQIHLSIAVMDYDRVGHNEVIGVCQVGNEAERLGRDHWSEMLSYPRKPIAHWHSLMEKR [C9A], the “effect of a mutation on the interaction” value is reported as “decreasing interaction”.

In the next experiment the parent is B2. The following applies: with syt9_mouse Syt9, Q9R0N9.
As for MSGVWGAGGPRAQAALAVLASLCRARPPPLGLDVETCRSFELQSPEQSPSAADSGTSVSLLAVVVIVCGVALVAVFLFLFWKLCWMPWRKKEASSPSSANPASETLQSPSSRGNMADKLKDPSALGFLEAAVKISHTSPDIPAEVQMSVKEHIMRHTKLQRQTTEPASSTRHTSFKRHLPRQMHVSSVDYGNELPPAAAEQPTSIGRIKPELYKQKSVDGDDAKSEAAKSCGKINFSLRYDYESETLIVRILKAFDLPAKDFCGSSDPYVKIYLLPDRKCKLQTRVHRKTLNPTFDENFHFPVPYEELADRKLHLSVFDFDRFSRHDMIGEVILDNLFEASDLSRETSIWKDIQYATSESVDLGEIMFSLCYLPTAGRLTLTVIKCRNLKAMDITGYSDPYVKVSLLCDGRRLKKKKTTIKKNTLNPIYNEAIIFDIPPENMDQVSLLISVMDYDRVGHNEIIGVCRVGINAEGLGRDHWNEMLAYPRKPIAHWHSLVEVKKSFKEGTPRL [C12A], the “effect of a mutation on the interaction” value is on record as “decreasing interaction”.

Another experiment covers variants of B3. To be noted: with syt6_mouse Syt6, Q9R0N8.
With MSGDYEDDLARRALILVSDLCARVRDADTNDRCQEFNELRIRGYPRGPDADISVSLLSVIVTFCGIVLLGVSLFVSWKLCWVPWRDKGGSAVGGGPLRKDLAPGVGLAGLVGGGGHHLGASLGGHPLLGGPHHHGHTAHHPPFAELLEPGGLGGSEPPEPSYLDMDSYPEAAVASVVAAGVKPSQTSPELPSEGGTGSGLLLLPPSGGGLPSAQSHQQVTSLAPTTRYPALPRPLTQQTLTTQADPSTEERPPALPLPLPGGEEKAKLIGQIKPELYQGTGPGGRRGGGSGEAGAPCGRISFALRYLYGSDHLVVRILQALDLPAKDSNGFSDPYVKIYLLPDRKKKFQTKVHRKTLNPIFNETFQFSVPLAELAQRKLHFSVYDFDRFSRHDLIGQVVLDNLLELAEQPPDRPLWRDILEGGSEKADLGELNFSLCYLPTAGRLTVTIIKASNLKAMDLTGFSDPYVKASLISEGRRLKKRKTSIKKNTLNPTYNEALVFDVAPESVENVGLSIAVVDYDCIGHNEVIGVCRVGPEAADPHGREHWAEMLANPRKPVEHWHQLVEEKTLSSFTKGGKGLSEKENSE [C10A], the “effect of a mutation on the interaction” value is listed as “decreasing interaction”.

Variants of B4 are the subject of a further experiment. The following applies: with syt10_mouse Syt10, Q9R0N4.
In the case of MSGVWGAGGPRAQAALAVLASLCRARPPPLGLDVETCRSFELQSPEQSPSAADSGTSVSLLAVVVIVCGVALVAVFLFLFWKLCWMPWRKKEASSPSSANPASETLQSPSSRGNMADKLKDPSALGFLEAAVKISHTSPDIPAEVQMSVKEHIMRHTKLQRQTTEPASSTRHTSFKRHLPRQMHVSSVDYGNELPPAAAEQPTSIGRIKPELYKQKSVDGDDAKSEAAKSCGKINFSLRYDYESETLIVRILKAFDLPAKDFCGSSDPYVKIYLLPDRKCKLQTRVHRKTLNPTFDENFHFPVPYEELADRKLHLSVFDFDRFSRHDMIGEVILDNLFEASDLSRETSIWKDIQYATSESVDLGEIMFSLCYLPTAGRLTLTVIKCRNLKAMDITGYSDPYVKVSLLCDGRRLKKKKTTIKKNTLNPIYNEAIIFDIPPENMDQVSLLISVMDYDRVGHNEIIGVCRVGINAEGLGRDHWNEMLAYPRKPIAHWHSLVEVKKSFKEGTPRL [C12A], the “effect of a mutation on the interaction” value was “decreasing interaction”.

The variants in the next experiment derive from B5. The following applies: with syt3_mouse Syt3, O35681.
Regarding MSFRKEDGVSSLAQKALHIITELCFAGQVEWDKCSGIFPADRSGQGGGGTDISVSLLAVVVSFCGLALLVVSLFVFWKLCWPCWKSKLVAPNLSVLPQSISSAPTEVFETEEKKEVEENEKPAPKAIEPAIKISHTSPDIPAEVQTALKEHLIKHARVQRQTTEPTSSSRHNSFRRHLPRQMNVSSVDFSVGTEPILQRGETRTSIGRIKPELYKQKSVDSEGNRKDDVKTCGKLNFALQYDYENELLVVKIIKALDLPAKDFTGTSDPYVKIYLLPDRKKKFQTRVHRKTLNPLFDELFQFPVVYDQLSNRKLHFSIYDFDRFSRHDMIGEVILDNLFEVSDLSREATVWKDIHCATTESIDLGEIMFSLCYLPTAGRMTLTVIKCRNLKAMDITGSSDPYVKVSLMCEGRRLKKRKTTTKKNTLNPVYNEAIIFDIPPENVDQVSLCIAVMDYDRVGHNEVIGVCRTGLDAEGLGRDHWNEMLAYHRKPITHWHPLLELPGRATSFDSQGSCSSPRPPSTP [C13A], the “effect of a mutation on the interaction” value is listed as “decreasing interaction”.

In a further experiment the parent is B6. The following applies: with syt6_mouse Syt6, Q9R0N8.
As for MPGARDALAHQALQLLAELCARGALEHDSCQDFIYHLRDRARPRLRDPDISVSLLTLVVTACGLALFGVSLFVSWKLCWVPWRERGLFSGSKDNNQEPLNYTDTETNEQENSEDFLDPPTPCPDSSMKISHTSPDIPLSTQPGGQENCAHAVRVQRQVTEPTPSARHNSIRRQLNLSNPDFNIQQLQRQEQLTGIGRIKPELYKQRSLDNDDGRRSNSKACGKLNFILKYDCDLEQLIVKIHKAVNLPAKDFSGTSDPYVKIYLLPDRKTKHQTKVHRKTLNPVFDEVFLFPVHYNDLEARKLHFSVYDFDRFSRHDLIGQVVVDHFFDLADFPRECILWKDIEYVTNDNVDLGELMFSLCYLPTAGRLTITIIKARNLKAMDITGASDPYVKVSLMCDGRRLKKRKTSTKRNTLNPVYNEAIVFDVPPESIDQIHLSIAVMDYDRVGHNEVIGVCQVGNEAERLGRDHWSEMLSYPRKPIAHWHSLMEKR [C9A], the “effect of a mutation on the interaction” value is “decreasing interaction”.
